Consider one substance from IntAct's records for PubMed 18502764.

For the test, the target named is ehd2_mouse Ehd2 (UniProt Q8BH64).
Sequence of UniProt Q8BH64 (Q8BH64 whole entry): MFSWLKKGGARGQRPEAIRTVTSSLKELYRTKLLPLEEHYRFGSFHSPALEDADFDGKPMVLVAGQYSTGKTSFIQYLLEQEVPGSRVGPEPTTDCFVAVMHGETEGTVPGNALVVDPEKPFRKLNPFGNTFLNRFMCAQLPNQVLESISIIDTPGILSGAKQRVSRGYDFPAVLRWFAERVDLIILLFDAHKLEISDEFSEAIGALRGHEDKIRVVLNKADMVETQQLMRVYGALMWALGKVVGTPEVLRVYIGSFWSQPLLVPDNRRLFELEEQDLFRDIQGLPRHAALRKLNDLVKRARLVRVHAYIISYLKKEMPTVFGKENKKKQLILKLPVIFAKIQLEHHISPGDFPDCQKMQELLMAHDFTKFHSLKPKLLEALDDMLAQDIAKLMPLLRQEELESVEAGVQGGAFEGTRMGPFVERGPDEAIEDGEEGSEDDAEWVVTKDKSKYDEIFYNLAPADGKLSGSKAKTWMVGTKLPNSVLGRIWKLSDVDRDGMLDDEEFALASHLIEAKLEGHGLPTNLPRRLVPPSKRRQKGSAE

Consider Myoferlin (Homo sapiens), Q9NZM1 N238C, for which the “effect of a mutation on the interaction” value is recorded as “decreasing interaction”.
